Sequences and labels used below:
B1: Twister Ribozyme (parent)
chain: AACACUGCCAAUGCCGGUCCCAAGCCCGGAUAAAAGUGGAGGGGGCGG

In this data set the parent is B1. Description: self-cleavage, relative activity (ratio to wild type); higher = more cleavage; co-transcriptional.
As to AACACUGCCAAUGCCGGUCCCAUGGCCGGAUAAAAGUGGAGGGGGCGG [A23U C25G], the self-cleavage worked out at 0.0583.

On to AACACUGCCAAUGCCGGUCCCAUGCACGGAUAAAAGUGGAGGGGGCGG [A23U C26A], for which the self-cleavage turned out to be 0.234.

For AACACUGCCAAUGCCGGUCCCAUGCUCGGAUAAAAGUGGAGGGGGCGG [A23U C26U], the self-cleavage was determined as 0.153.

For the variant AACACUGCCAAUGCCGGUCCCAGGCCCGUAUAAAAGUGGAGGGGGCGG [A23G G29U], the self-cleavage worked out at 0.425.

In the case of AACACUGCCAAUGCCGGUCCCAGGCCCGAAUAAAAGUGGAGGGGGCGG [A23G G29A], the self-cleavage was 0.307.

AACACUGCCAAUGCCGGUCCCAGGCCCGGAUAAAAGUGAAGGGGGCGG [A23G G39A]: the self-cleavage was 0.143.

As to AACACUGCCAAUGCCGGUCCCAUGCCCGGAUAUAAGUGGAGGGGGCGG [A23U A33U], the self-cleavage was determined as 0.307.

Take AACACUGCCAAUGCCGGUCCCAGGCCCGGAUAAAAGCGGAGGGGGCGG [A23G U37C]: the self-cleavage is 0.142.

AACACUGCCAAUGCCGGUCCCAUGCCCGGAUCAAAGUGGAGGGGGCGG [A23U A32C]: the self-cleavage amounted to 0.464.

For AACACUGCCAAUGCCGGUCCCAUGCCCGGAUUAAAGUGGAGGGGGCGG [A23U A32U], the self-cleavage is 0.494.

Regarding AACACUGCCAAUGCCGGUCCCAUGCCCGGAUAAAAGUGGAGGCGGCGG [A23U G43C], the self-cleavage was 0.146.

For the variant AACACUGCCAAUGCCGGUCCCAUGCCCGGAUAAAAGUGGAGGGAGCGG [A23U G44A], the self-cleavage came to 0.679.

Take AACACUGCCAAUGCCGGUCCCAUGCCCGGAUAAAAGUGGAGGGUGCGG [A23U G44U]: the self-cleavage came out at 0.484.

As for AACACUGCCAAUGCCGGUCCCAUGCCCGGAUAAAAGUGGCGGGGGCGG [A23U A40C], the self-cleavage amounted to 0.103.

AACACUGCCAAUGCCGGUCCCAGGCCCGGAUAAAAGUGGACGGGGCGG [A23G G41C]: the self-cleavage worked out at 0.138.

Turning to AACACUGCCAAUGCCGGUCCCAUGCCCGGAUAAAAGUGGAGGGGGCCG [A23U G47C], the self-cleavage came out at 0.213.

AACACUGCCAAUGCCGGUCCCAUGCCCGGAUAAAAGUGGAGGGGGCAG [A23U G47A]: the self-cleavage was determined as 0.245.

On to AACACUGCCAAUGCCGGUCCCAUGCCCGGAUAAAAGUGGAGGGGGCGU [A23U G48U], for which the self-cleavage amounted to 0.439.

Take AACACUGCCAAUGCCGGUCCCAUGCCCGGAUAAAAGUGGAGGGGGCGC [A23U G48C]: the self-cleavage worked out at 0.48.

In the case of AACACUGCCAAUGCCGGUCCCAUGCCCGGAUAAAAGUGGAGGGGGCGA [A23U G48A], the self-cleavage is 0.389.

As for AACACUGCCAAUGCCGGUCCCAGGCCCGGAUAAAAGUGGAGGGCGCGG [A23G G44C], the self-cleavage was found to be 0.508.

AACACUGCCAAUGCCGGUCCCAGGCCCUGAUAAAAGUGGAGGGGGCGG [A23G G28U]: the self-cleavage was 0.184.

Consider AACACUGCCAAUGCCGGUCCCAGGCCCCGAUAAAAGUGGAGGGGGCGG [A23G G28C], for which the self-cleavage was found to be 0.246.

For AACACUGCCAAUGCCGGUCCCAGGCCCGGAUAAAAGUGGAGCGGGCGG [A23G G42C], the self-cleavage was determined as 0.176.

Take AACACUGCCAAUGCCGGUCCCAGGCCCGGAUAAAAGUGGAGGGGGCUG [A23G G47U]: the self-cleavage was determined as 0.17.

For AACACUGCCAAUGCCGGUCCCAGGCCCGGAUAAAACUGGAGGGGGCGG [A23G G36C], the self-cleavage amounted to 0.0979.

Consider AACACUGCCAAUGCCGGUCCCAGGCCCGGAUAAAAGUGGAGGGGGCGA [A23G G48A], for which the self-cleavage came out at 0.327.

On to AACACUGCCAAUGCCGGUCCCAGGCCCGGAUAAAAGUGGAGGGGGCGU [A23G G48U], for which the self-cleavage came to 0.354.

AACACUGCCAAUGCCGGUCCCAGGCCCGGAUAAAAGUGGAGGGGGCGC [A23G G48C]: the self-cleavage amounted to 0.516.

As for AACACUGCCAAUGCCGGUCCCAUGCCCGGAUAAAAGUGUAGGGGGCGG [A23U G39U], the self-cleavage came to 0.119.

With AACACUGCCAAUGCCGGUCCCAUUCCCGGAUAAAAGUGGAGGGGGCGG [A23U G24U], the self-cleavage amounted to 0.0593.

As to AACACUGCCAAUGCCGGUCCCAGGCCCGGAUAAAAGUGGAGGUGGCGG [A23G G43U], the self-cleavage was determined as 0.0895.

On to AACACUGCCAAUGCCGGUCCCAGGCCCGGAUAAAAGUGGAGGAGGCGG [A23G G43A], for which the self-cleavage was 0.0981.

In the case of AACACUGCCAAUGCCGGUCCCAAACCCGGAUCAAAGUGGAGGGGGCGG [G24A A32C], the self-cleavage was 0.0703.

For AACACUGCCAAUGCCGGUCCCAUGCCAGGAUAAAAGUGGAGGGGGCGG [A23U C27A], the self-cleavage came out at 0.0759.

Turning to AACACUGCCAAUGCCGGUCCCAUGCCGGGAUAAAAGUGGAGGGGGCGG [A23U C27G], the self-cleavage is 0.0875.

Regarding AACACUGCCAAUGCCGGUCCCAUGCCCGGAAAAAAGUGGAGGGGGCGG [A23U U31A], the self-cleavage was 0.502.

Regarding AACACUGCCAAUGCCGGUCCCAUGCCCGGACAAAAGUGGAGGGGGCGG [A23U U31C], the self-cleavage worked out at 0.682.

AACACUGCCAAUGCCGGUCCCAUGCCCGGAUAAAAGUGGAAGGGGCGG [A23U G41A]: the self-cleavage stood at 0.126.

With AACACUGCCAAUGCCGGUCCCAUGCCCGGAUAAAAGUGGAUGGGGCGG [A23U G41U], the self-cleavage is 0.137.

Turning to AACACUGCCAAUGCCGGUCCCAUGCCCGGAUAAAAGUGGACGGGGCGG [A23U G41C], the self-cleavage stood at 0.0988.

AACACUGCCAAUGCCGGUCCCAUGCCCGGAUAAGAGUGGAGGGGGCGG [A23U A34G]: the self-cleavage worked out at 0.0731.

Turning to AACACUGCCAAUGCCGGUCCCAUGCCCGGAUAACAGUGGAGGGGGCGG [A23U A34C], the self-cleavage was found to be 0.0966.

Consider AACACUGCCAAUGCCGGUCCCAGGCCCGGAUAAAAGUGGAGGGGUCGG [A23G G45U], for which the self-cleavage is 0.158.

Consider AACACUGCCAAUGCCGGUCCCAGGCCCGGAUAAAAGUGGAGGGGCCGG [A23G G45C], for which the self-cleavage was determined as 0.181.

AACACUGCCAAUGCCGGUCCCAUGCCCGGAUAAAACUGGAGGGGGCGG [A23U G36C]: the self-cleavage turned out to be 0.12.

As for AACACUGCCAAUGCCGGUCCCAUGCCCGGGUAAAAGUGGAGGGGGCGG [A23U A30G], the self-cleavage was 0.506.

As to AACACUGCCAAUGCCGGUCCCAUGCCCGGUUAAAAGUGGAGGGGGCGG [A23U A30U], the self-cleavage came to 0.501.

Consider AACACUGCCAAUGCCGGUCCCAUGCCCGGAUAAAAGUGGAGGGGACGG [A23U G45A], for which the self-cleavage came out at 0.391.

For AACACUGCCAAUGCCGGUCCCAUGCCCGCAUAAAAGUGGAGGGGGCGG [A23U G29C], the self-cleavage amounted to 0.0484.

Turning to AACACUGCCAAUGCCGGUCCCAUGCCCGAAUAAAAGUGGAGGGGGCGG [A23U G29A], the self-cleavage worked out at 0.285.

On to AACACUGCCAAUGCCGGUCCCAUGCCCGUAUAAAAGUGGAGGGGGCGG [A23U G29U], for which the self-cleavage came out at 0.315.

In the case of AACACUGCCAAUGCCGGUCCCAGGCCCGGAUAAAAGUUGAGGGGGCGG [A23G G38U], the self-cleavage turned out to be 0.236.

In the case of AACACUGCCAAUGCCGGUCCCAGGCCCGGAUAAAAGUAGAGGGGGCGG [A23G G38A], the self-cleavage stood at 0.194.

(Values after the RNAGym collection of RNA variant scans (doi:10.7554/elife.80360).)
